Columns and labels:
eGFP Y40am [1] = assay: SDS-PAGE analysis of eGFP Y40am expression in the presence of AzK; assay type: cell-based; conditions: overnight induction, compared to eGFP wild type band
Experimental: FIG. 3: SDS-PAGE analysis of the expression of eGFP Y40am in the presence of AzK with the MaPyIRS M129L V168C/MatRNACUA^Pyl mutant o-pair in comparison to MmOP and MaOP corroborates the fluorescence analysis. eGFP expression was assessed after overnight induction, two expressions of eGFP Y40AzK with the mutant MaOP are shown. eGFP wild type was expressed from the same plasmid carrying the MmOP. Samples of corresponding cell density were analyzed. The calculated molecular weight of eGFP is 28 kDa. M, molecular weight marker.
To further validate the finding, the expression of the reporter protein eGFP by SDS-PAGE was analyzed (e.g., FIG. 3).

eGFP Y40am [2] = assay: eGFP Y40am amber suppression reporter: ncAA incorporation by o-pairs, fluorescence normalized to cell density; assay type: cell-based
Experimental: The incorporation of BocK, AllocK and AzK by the MmPyIRS/MmtRNACUA^Pyl and MaPyIRS/MatRNACUA^Pyl o-pairs was compared. The ncAAs were supplemented in the medium at 5 mM. eGFP fluorescence (λex 488 nm; λem 508 nm) was assessed after 4 hours (white bars) and overnight (black bars) induction. Fluorescence units were correlated to cell density (F488;508/D600) and the average of eight technical replicates is shown; the error bars indicate the standard deviation.
The incorporation of AzK by the MmPyIRS/MmtRNACUA^Pyl and the MaPyIRS/MatRNACUA^Pyl wild type and mutant o-pairs was compared. The ncAA was supplemented in the medium at 5 mM. eGFP fluorescence (λex 485 nm; λem 530 nm) was assessed after overnight induction. eGFP wild type was expressed from the same plasmid carrying the MmOP. Fluorescence units were correlated to cell density (F485;530/D600) and the average of at least two technical replicates is shown; the error bars indicate the standard deviation.
FIG. 4: The MaPyIRS M129L V168C/MatRNACUA^Pyl mutant o-pair produces more target protein than MmOP with less or the same amount of AzK. MaOP LC, MaPyIRS M129L V168C/MatRNACUA^Pyl; MmOP, PyIRS and RNACUA^Pyl from M. mazel, both o-pairs were used in BL21(DE3) cells; UNINDUCED, eGFP Y40am expression was not induced; INDUCED, expression was induced with 1 mM IPTG. Different concentrations of AzK were provided in the medium either 2 hours before induction with IPTG, or in parallel with IPTG. eGFP fluorescence (λex 485 nm; λem 530 nm) was assessed after overnight induction and was normalized to cell density (D600). The average of at least 3 replicates is shown and the error bars indicate the standard deviation.
The MaPyIRS M129L+V168C mutant variant was generated, which contains the same amino acid residues in the amino acid binding pocket as the MmPyIRS. […] The efficiency of the incorporation of AzK into the reporter protein eGFP Y40am was assessed by recording the fluorescence intensity normalized to the corresponding cell density and was compared to the fluorescence of wild type eGFP expressed from the same plasmid.

B1: MmPyIRS/MmtRNACUA^Pyl: wildtype Methanosarcina mazei pyrrolysyl-tRNA synthetase/tRNA o-pair, the benchmark (protein, UniProt Q8PWY1 1-454, looked up)
Pyrrolysine--tRNA ligase: MDKKPLNTLISATGLWMSRTGTIHKIKHHEVSRSKIYIEMACGDHLVVNNSRSSRTARALRHHKYRKTCKRCRVSDEDLNKFLTKANEDQTSVKVKVVSAPTRTKKAMPKSVARAPKPLENTEAAQAQPSGSKFSPAIPVSTQESVSVPASVSTSISSISTGATASALVKGNTNPITSMSAPVQASAPALTKSQTDRLEVLLNPKDEISLNSGKPFRELESELLSRRKKDLQQIYAEERENYLGKLEREITRFFVDRGFLEIKSPILIPLEYIERMGIDNDTELSKQIFRVDKNFCLRPMLAPNLYNYLRKLDRALPDPIKIFEIGPCYRKESDGKEHLEEFTMLNFCQMGSGCTRENLESIITDFLNHLGIDFKIVGDSCMVYGDTLDVMHGDLELSSAVVGPIPLDREWGIDKPWIGAGFGLERLLKVKHDFKNIKRAARSESYYNGISTNL
modifications: with cognate tRNA Pyl
notes: wildtype Methanosarcina mazei pyrrolysyl-tRNA synthetase/tRNA o-pair, the benchmark
eGFP Y40am [1]
  eGFP expression band intensity in the presence of AzK: markedly less intense
eGFP Y40am [2]; AllocK 5 mM in medium, eGFP fluorescence correlated to cell density
  AllocK incorporation: efficient incorporation
eGFP Y40am [2]; AzK 5 mM in medium, eGFP fluorescence correlated to cell density (D600)
  AzK incorporation efficiency: very well incorporated
eGFP Y40am [2]; BocK 5 mM in medium, eGFP fluorescence correlated to cell density
  BocK incorporation: efficient incorporation

From patent US20230287383A1, “PYRROLYSYL-tRNA SYNTHETASE VARIANTS AND USES THEREOF” (enGenes Biotech GmbH, priority 2020, published 2023)
